The source of these data is article PMC10057847, “Precision engineering of biological function with large-scale measurements and machine learning” (PLOS ONE, 2023).

Where “and” joins values, the source holds several entries; their conditions need not be identical. Identical values can stand only once.

This assay has as its system eYFP under the control of the lactose operator (lacO). Kind of assay: in vivo dose-response curves of LacI variants to IPTG measured with flow cytometry (eYFP output), fit to the Hill equation. Format: cell-based, E. coli. The settings on record: for dose-response phenotype (in words): IPTG dose-response by flow cytometry; for n: the Hill coefficient: IPTG dose-response; for log_g0: the base-10 logarithm of G0 (in MEF) / log_ginf: the base-10 logarithm of G∞ (in MEF): value is log10; for log_ginf: the base-10 logarithm of G∞ (in MEF): saturating output; for geo_mean: geometric mean of the YFP signal measured by cytometry: clone A. The protocol:
Dose-response curves were measured with flow cytometry using E. coli MG1655Δlac transformed with variants of the pVER plasmid, described previously. The plasmid contained different variants of the lacI coding DNA sequence (CDS), as described in the text, and an expression cassette with enhanced yellow fluorescent protein (eYFP) under the control of the lactose operator (lacO). The lacI CDS was verified with Sanger sequencing for each variant.
All cultures were grown in a rich M9 media (3 g/L KH2PO4, 6.78 g/L Na2HPO4, 0.5 g/L NaCl, 1 g/L NH4Cl, 0.1 mmol/L CaCl2, 2 mmol/L MgSO4, 4% glycerol, and 20 g/L casamino acids) supplemented with 50 μg/mL kanamycin.
For flow cytometry measurements, E. coli cultures were grown in a laboratory automation system that included an automated liquid handler (Hamilton, STAR), an automated plate sealer (4titude, a4S), an automated de-sealer (Brooks, XPeel), and two multi-mode plate readers (BioTek, Neo2SM).
Cultures were grown in clear polystyrene 96-well plates with 1.1 mL square wells (4titude, 4ti-0255). The culture volume per well was 0.5 mL. Before incubation, each 96-well growth plate was sealed by the automated plate sealer with a gas permeable membrane (4titude, 4ti-0598). Growth plates were incubated in one of the multi-mode plate readers at 37°C with a 1°C gradient applied from the bottom to the top of the incubation chamber to minimize condensation on the inside of the membrane. The plate readers were set for double-orbital shaking at 807 cycles per minute. Optical density at 600 nm (OD600) was measured every 5 minutes during incubation, with continuous shaking applied between measurements (optical density at 700 nm and YFP fluorescence were also measured every 5 minutes). After incubation, the automated de-sealer was used to remove the gas-permeable membrane from each 96-well plate to enable automated passaging of cultures and sample preparation for flow cytometry measurements.
For each measurement, starter cultures were prepared from glycerol freezer stock in 5 mL of rich M9 media in a 14 mL snap-cap culture tubes. Starter cultures were incubated at 37°C with orbital shaking at 300 rpm for between 4 h and 24 h prior to loading the automation system. The automation system then prepared 96-well growth plates, sealed and de-sealed the growth plates, incubated the growth plates, and prepared flow cytometry sample plates. The automated culture protocol consisted of the following steps: […]

Setting [1] is: basal output, Hill fit of cytometry data, posterior mean.
The mark [2] stands for this setting: Hill fit of cytometry data, posterior mean.

B1: pVER-IPTG-WT(Q181H): LacI variant: Q181H (protein, UniProt P03023 1-360, looked up, variant Q181H)
Lactose operon repressor: MKPVTLYDVAEYAGVSYQTVSRVVNQASHVSAKTREKVEAAMAELNYIPNRVAQQLAGKQSLLIGVATSSLALHAPSQIVAAIKSRADQLGASVVVSMVERSGVEACKAAVHNLLAQRVSGLIINYPLDDQDAIAVEAACTNVPALFLDVSDQTPINSIIFSHEDGTRLGVEHLVALGHQHIALLAGPLSSVSARLRLAGWHKYLTRNQIQPIAEREGDWSAMSGFQQTMQMLNEGIVPTAMLVANDQMALGAMRAITESGLRVGADISVVGYDDTEDSSCYIPPLTTIKQDFRLLGQTSVDRLLQLSQGQAVKGNQLLPVSLVKRKTTLAPNTQTASPRALADSLMQLARQVSRLESGQ
In the case of B1, the “dose-response phenotype (in words)” value was “silent in wild-type background”.

B2: pVER-IPTG-WT(Q231R): LacI variant: Q231R (protein, UniProt P03023 1-360, looked up, variant Q231R)
Lactose operon repressor: MKPVTLYDVAEYAGVSYQTVSRVVNQASHVSAKTREKVEAAMAELNYIPNRVAQQLAGKQSLLIGVATSSLALHAPSQIVAAIKSRADQLGASVVVSMVERSGVEACKAAVHNLLAQRVSGLIINYPLDDQDAIAVEAACTNVPALFLDVSDQTPINSIIFSHEDGTRLGVEHLVALGHQQIALLAGPLSSVSARLRLAGWHKYLTRNQIQPIAEREGDWSAMSGFQQTMRMLNEGIVPTAMLVANDQMALGAMRAITESGLRVGADISVVGYDDTEDSSCYIPPLTTIKQDFRLLGQTSVDRLLQLSQGQAVKGNQLLPVSLVKRKTTLAPNTQTASPRALADSLMQLARQVSRLESGQ
Turning to B2, the “dose-response phenotype (in words)” value was “silent in wild-type background”.

B3: pVER-IPTG-WT(V136E/G200C): LacI variant: V136E G200C (protein, UniProt P03023 1-360, looked up, variant V136E G200C)
Lactose operon repressor: MKPVTLYDVAEYAGVSYQTVSRVVNQASHVSAKTREKVEAAMAELNYIPNRVAQQLAGKQSLLIGVATSSLALHAPSQIVAAIKSRADQLGASVVVSMVERSGVEACKAAVHNLLAQRVSGLIINYPLDDQDAIAEEAACTNVPALFLDVSDQTPINSIIFSHEDGTRLGVEHLVALGHQQIALLAGPLSSVSARLRLACWHKYLTRNQIQPIAEREGDWSAMSGFQQTMQMLNEGIVPTAMLVANDQMALGAMRAITESGLRVGADISVVGYDDTEDSSCYIPPLTTIKQDFRLLGQTSVDRLLQLSQGQAVKGNQLLPVSLVKRKTTLAPNTQTASPRALADSLMQLARQVSRLESGQ
Broadly, the EC50 is the concentration needed to bring the measured effect to its halfway point. Consider B3, for which the “dose-response phenotype (in words)” value was “band-stop dose-response curve”. Besides, the EC50 (IPTG as ligand, Hill fit of cytometry data, posterior mean, read-out: log_ec50: the base-10 logarithm of EC50 (converted)) is 2480 nM. For the same molecule, for the setting “Hill fit of cytometry data”, the “n: the Hill coefficient” value came to 2.118. Also, under setting [1], the “log_g0: the base-10 logarithm of G0 (in MEF)” value was 3.294 MEF. Moreover, the “log_ginf: the base-10 logarithm of G∞ (in MEF)” value under setting [2] turned out to be 4.168 MEF.

B4: pVER-IPTG-WT(S190C): LacI variant: S190C (protein, UniProt P03023 1-360, looked up, variant S190C)
Lactose operon repressor: MKPVTLYDVAEYAGVSYQTVSRVVNQASHVSAKTREKVEAAMAELNYIPNRVAQQLAGKQSLLIGVATSSLALHAPSQIVAAIKSRADQLGASVVVSMVERSGVEACKAAVHNLLAQRVSGLIINYPLDDQDAIAVEAACTNVPALFLDVSDQTPINSIIFSHEDGTRLGVEHLVALGHQQIALLAGPLCSVSARLRLAGWHKYLTRNQIQPIAEREGDWSAMSGFQQTMQMLNEGIVPTAMLVANDQMALGAMRAITESGLRVGADISVVGYDDTEDSSCYIPPLTTIKQDFRLLGQTSVDRLLQLSQGQAVKGNQLLPVSLVKRKTTLAPNTQTASPRALADSLMQLARQVSRLESGQ
As for B4, the “dose-response phenotype (in words)” value is given as “silent in wild-type background”.

B5: pVER-IPTG-WT(N208Y): LacI variant: N208Y (protein, UniProt P03023 1-360, looked up, variant N208Y)
Lactose operon repressor: MKPVTLYDVAEYAGVSYQTVSRVVNQASHVSAKTREKVEAAMAELNYIPNRVAQQLAGKQSLLIGVATSSLALHAPSQIVAAIKSRADQLGASVVVSMVERSGVEACKAAVHNLLAQRVSGLIINYPLDDQDAIAVEAACTNVPALFLDVSDQTPINSIIFSHEDGTRLGVEHLVALGHQQIALLAGPLSSVSARLRLAGWHKYLTRYQIQPIAEREGDWSAMSGFQQTMQMLNEGIVPTAMLVANDQMALGAMRAITESGLRVGADISVVGYDDTEDSSCYIPPLTTIKQDFRLLGQTSVDRLLQLSQGQAVKGNQLLPVSLVKRKTTLAPNTQTASPRALADSLMQLARQVSRLESGQ
With B5, the “dose-response phenotype (in words)” value is on record as “silent in wild-type background”.

B6: pVER-IPTG-WT: wild-type LacI (lac repressor) on the pVER plasmid (protein, UniProt P03023 1-360, looked up)
Lactose operon repressor: MKPVTLYDVAEYAGVSYQTVSRVVNQASHVSAKTREKVEAAMAELNYIPNRVAQQLAGKQSLLIGVATSSLALHAPSQIVAAIKSRADQLGASVVVSMVERSGVEACKAAVHNLLAQRVSGLIINYPLDDQDAIAVEAACTNVPALFLDVSDQTPINSIIFSHEDGTRLGVEHLVALGHQQIALLAGPLSSVSARLRLAGWHKYLTRNQIQPIAEREGDWSAMSGFQQTMQMLNEGIVPTAMLVANDQMALGAMRAITESGLRVGADISVVGYDDTEDSSCYIPPLTTIKQDFRLLGQTSVDRLLQLSQGQAVKGNQLLPVSLVKRKTTLAPNTQTASPRALADSLMQLARQVSRLESGQ
For B6, the “n: the Hill coefficient” value (Hill fit of cytometry data) amounted to 1.559. In addition, the G0 (basal output) came out at 158 MEF. The “log_g0: the base-10 logarithm of G0 (in MEF)” value under setting [1] came to 2.097 MEF. In addition, under setting [2], the “log_ginf: the base-10 logarithm of G∞ (in MEF)” value came to 4.44 MEF.

B7: pVER-IPTG-WT(V271M): LacI variant: V271M (protein, UniProt P03023 1-360, looked up, variant V271M)
Lactose operon repressor: MKPVTLYDVAEYAGVSYQTVSRVVNQASHVSAKTREKVEAAMAELNYIPNRVAQQLAGKQSLLIGVATSSLALHAPSQIVAAIKSRADQLGASVVVSMVERSGVEACKAAVHNLLAQRVSGLIINYPLDDQDAIAVEAACTNVPALFLDVSDQTPINSIIFSHEDGTRLGVEHLVALGHQQIALLAGPLSSVSARLRLAGWHKYLTRNQIQPIAEREGDWSAMSGFQQTMQMLNEGIVPTAMLVANDQMALGAMRAITESGLRVGADISVMGYDDTEDSSCYIPPLTTIKQDFRLLGQTSVDRLLQLSQGQAVKGNQLLPVSLVKRKTTLAPNTQTASPRALADSLMQLARQVSRLESGQ
B7: the “dose-response phenotype (in words)” value is recorded as “silent in wild-type background”.

B8: pVER-IPTG-WT(S279T/V136E): LacI variant: V136E S279T (protein, UniProt P03023 1-360, looked up, variant V136E S279T)
Lactose operon repressor: MKPVTLYDVAEYAGVSYQTVSRVVNQASHVSAKTREKVEAAMAELNYIPNRVAQQLAGKQSLLIGVATSSLALHAPSQIVAAIKSRADQLGASVVVSMVERSGVEACKAAVHNLLAQRVSGLIINYPLDDQDAIAEEAACTNVPALFLDVSDQTPINSIIFSHEDGTRLGVEHLVALGHQQIALLAGPLSSVSARLRLAGWHKYLTRNQIQPIAEREGDWSAMSGFQQTMQMLNEGIVPTAMLVANDQMALGAMRAITESGLRVGADISVVGYDDTEDTSCYIPPLTTIKQDFRLLGQTSVDRLLQLSQGQAVKGNQLLPVSLVKRKTTLAPNTQTASPRALADSLMQLARQVSRLESGQ
With B8, the “dose-response phenotype (in words)” value was “more complicated non-monotonic dose-response (high-low-high-low)”.

B9: pVER-IPTG-WT(V136E): LacI variant: V136E (protein, UniProt P03023 1-360, looked up, variant V136E)
Lactose operon repressor: MKPVTLYDVAEYAGVSYQTVSRVVNQASHVSAKTREKVEAAMAELNYIPNRVAQQLAGKQSLLIGVATSSLALHAPSQIVAAIKSRADQLGASVVVSMVERSGVEACKAAVHNLLAQRVSGLIINYPLDDQDAIAEEAACTNVPALFLDVSDQTPINSIIFSHEDGTRLGVEHLVALGHQQIALLAGPLSSVSARLRLAGWHKYLTRNQIQPIAEREGDWSAMSGFQQTMQMLNEGIVPTAMLVANDQMALGAMRAITESGLRVGADISVVGYDDTEDSSCYIPPLTTIKQDFRLLGQTSVDRLLQLSQGQAVKGNQLLPVSLVKRKTTLAPNTQTASPRALADSLMQLARQVSRLESGQ
As for B9, the “dose-response phenotype (in words)” value was “reduced G∞ but G0 and EC50 similar to the wild type”.

B10: pVER-IPTG-001: LacI variant: Q55H D130E V192A T258I D267N Y273H N333I (protein, UniProt P03023 1-360, looked up, variant Q55H D130E V192A T258I D267N Y273H N333I)
Lactose operon repressor: MKPVTLYDVAEYAGVSYQTVSRVVNQASHVSAKTREKVEAAMAELNYIPNRVAQHLAGKQSLLIGVATSSLALHAPSQIVAAIKSRADQLGASVVVSMVERSGVEACKAAVHNLLAQRVSGLIINYPLDEQDAIAVEAACTNVPALFLDVSDQTPINSIIFSHEDGTRLGVEHLVALGHQQIALLAGPLSSASARLRLAGWHKYLTRNQIQPIAEREGDWSAMSGFQQTMQMLNEGIVPTAMLVANDQMALGAMRAIIESGLRVGANISVVGHDDTEDSSCYIPPLTTIKQDFRLLGQTSVDRLLQLSQGQAVKGNQLLPVSLVKRKTTLAPITQTASPRALADSLMQLARQVSRLESGQ
For the molecule B10, the “geo_mean: geometric mean of the YFP signal measured by cytometry” value is 26059.303161112988 and 23664.3303473106 (IPTG 0.0 μmol/L); 26140.44981266789 (IPTG 2.0 μmol/L); 26093.69376618197 (IPTG 4.0 μmol/L); 26130.45714766927 (IPTG 8.0 μmol/L).
